Test results: the Immune Epitope Database (IEDB)

biological target: HLA-A*02:02; test: IEDB peptide-MHC binding, purified MHC/competitive/radioactivity; ≥ and ≤ were set here for values at or beyond the usual limits of such assays; conditions: source organism: Vaccinia virus WR

In order of falling IC50:
1. QLVFNSISA  4800 nM
2. KVTVPTNDHI  4720 nM
3. SLCPTKKLV  3160 nM
4. VIPDELIDVL  2490 nM
5. RLYDYFTRVT  2450 nM
6. FTSYKRFVT  2330 nM
7. RVLYDEFVT  2170 nM
8. HMYRGGNGNT  2020 nM
9. NITPDDGLGL  1910 nM
10. YIEDELRRA  1760 nM
11. GTKGKLYIA  1720 nM
12. NTNQGNILM  1700 nM
13. ITHTNITTLL  1680 nM
14. NIKISLNEI  1670 nM
15. TIAVSVYGAI  1550 nM
16. IQKDINITHT  1360 nM
17. KIDILQMREI  1280 nM
18. YVEHDPRLV  1180 nM
19. MIGNYFSGVL  712 nM
20. GINNVQSLI  474 nM
21. IISTDQDTML  451 nM
22. LLNETAKVI  319 nM
23. TLFYCDERDA  271 nM
24. LLGLILFVL  266 nM
25. KIKQTGINNV  237 nM
26. LQWDDNIPEL  180 nM
27. MAEFEDQLV  165 nM
28. GLILFVLAL  129 nM
29. MLKLFTHDIM  85 nM
30. QLYTISSESL  72 nM
31. IADIRDKYM  63 nM
32. IAVANCVRNL  57 nM
33. NIDSIMSMM  25 nM
34. YLSGTDDEVI  6.3 nM
35. LIAGIILLI  0.17 nM

biological target: HLA-A*02:03; test: as above; conditions: source organism: Hepacivirus hominis

In order of falling IC50:
1. VLIVMLLFA  435 nM
2. YLVTRNADV  62 nM
3. YLYGIGSAVV  3.5 nM

same assay, conditions: source organism: Influenza A virus

In order of falling IC50:
1. GTSGVESAV  3010 nM
2. AVATTHSWI  753 nM
3. CLINDPWVL  255 nM

same assay, conditions: source organism: Mammarenavirus brazilense

YNYSLSAAV showed an IC50 of 67 nM.

same assay, conditions: source organism: Mammarenavirus whitewaterense

In order of falling IC50:
1. YNLSLSAAV  1150 nM
2. LDFAKVASV  453 nM

same assay, conditions: source organism: Vaccinia virus WR

In order of rising IC50:
1. KIKQTGINNV  3.1 nM
2. FLRPVLKAM  9.8 nM
3. CLKNEGVSGL  25 nM
4. NIKISLNEI  31 nM
5. LIAGIILLI  39 nM
6. DLFMSHVKSV  42 nM
7. FIQWTGGNI  55 nM
8. GTKGKLYIA  56 nM
9. EMKYALINL  63 nM
10. LLNETAKVI  71 nM
11. DIMTSTRTI  79 nM
12. MLKLFTHDIM  93 nM
13. ITHTNITTLL  101 nM
14. DTGKKELAL  156 nM
15. ELKDLLNVT  209 nM
16. YLSGTDDEVI  211 nM
17. IADIRDKYM  230 nM
18. DTIAHINTL  233 nM
19. QLYTISSESL  245 nM
20. ELSRLRYNL  254 nM
21. YIEDELRRA  259 nM
22. ELWARISSSL  324 nM
23. IQKDINITHT  340 nM
24. GINNVQSLI  378 nM
25. KIDILQMREI  414 nM
26. HMYRGGNGNT  423 nM
27. EIMDKEQLL  427 nM
28. GLILFVLAL  452 nM
29. IAVANCVRNL  467 nM
30. RLYDYFTRVT  551 nM
31. TIAVSVYGAI  582 nM
32. MAEFEDQLV  641 nM
33. DQDTMLFASA  663 nM
34. YVEHDPRLV  711 nM
35. LQWDDNIPEL  712 nM
36. MIGNYFSGVL  761 nM
37. ELLEMKYAL  863 nM
38. NIDSIMSMM  874 nM
39. DVDIPTFNSL  1030 nM
40. NTNQGNILM  1150 nM
41. KVTVPTNDHI  1240 nM
42. NITPDDGLGL  1290 nM
43. RVLYDEFVT  1410 nM
44. AAAKTPVIV  1420 nM
45. QLVFNSISA  1560 nM
46. AAKTPVIVV  1630 nM
47. DLNAVTTNNL  1630 nM
48. FTEEQQQSFM  1750 nM
49. IISTDQDTML  1810 nM
50. LLGLILFVL  1860 nM
51. TLFYCDERDA  2140 nM
52. DLNRMPTDML  2190 nM
53. EVTPEYIKDL  2270 nM
54. ETLFGSYIT  2440 nM
55. SLCPTKKLV  2660 nM
56. DTLVKSGLT  2880 nM
57. FTSYKRFVT  3380 nM
58. VIPDELIDVL  4590 nM

biological target: HLA-A*02:06; test: as above; conditions: source organism: Hepacivirus hominis

In order of falling IC50:
1. YLVTRNADV  4320 nM
2. YLYGIGSAVV  285 nM

same assay, conditions: source organism: Mammarenavirus brazilense

For YNYSLSAAV, the IC50 was 88 nM.

same assay, conditions: source organism: Mammarenavirus whitewaterense

Sequence YNLSLSAAV has an IC50 of 1660 nM.

same assay, conditions: source organism: Vaccinia virus WR

In order of falling IC50:
1. QLYTISSESL  4740 nM
2. NIDSIMSMM  4720 nM
3. QLVFNSISA  3780 nM
4. KVTVPTNDHI  3600 nM
5. NITPDDGLGL  3450 nM
6. KIKQTGINNV  2550 nM
7. GTKGKLYIA  2530 nM
8. DQDTMLFASA  1720 nM
9. GINNVQSLI  1720 nM
10. RVLYDEFVT  1720 nM
11. NIKISLNEI  1500 nM
12. MIGNYFSGVL  1310 nM
13. YIEDELRRA  1230 nM
14. YLSGTDDEVI  947 nM
15. KIDILQMREI  875 nM
16. FTEEQQQSFM  833 nM
17. RLYDYFTRVT  691 nM
18. IISTDQDTML  666 nM
19. VIPDELIDVL  298 nM
20. LQWDDNIPEL  34 nM

biological target: HLA-A*68:02; test: as above; conditions: source organism: Hepacivirus hominis

In the case of VLIVMLLFA, the IC50 is reported as 4550 nM.

same assay, conditions: source organism: Influenza A virus

In order of falling IC50:
1. CLINDPWVL  4550 nM
2. AVATTHSWI  876 nM
3. GTSGVESAV  683 nM

same assay, conditions: source organism: Mammarenavirus whitewaterense

LDFAKVASV gave an IC50 of 296 nM.

same assay, conditions: source organism: Vaccinia virus WR

In order of rising IC50:
1. ELSRLRYNL  1 nM
2. LIAGIILLI  20 nM
3. ELWARISSSL  22 nM
4. DIMTSTRTI  78 nM
5. EIMDKEQLL  291 nM
6. ITHTNITTLL  311 nM
7. FIQWTGGNI  442 nM
8. FTSYKRFVT  452 nM
9. ETLFGSYIT  465 nM
10. IAVANCVRNL  465 nM
11. TIAVSVYGAI  618 nM
12. NTNQGNILM  664 nM
13. MAEFEDQLV  674 nM
14. LLNETAKVI  881 nM
15. LLGLILFVL  906 nM
16. SLCPTKKLV  1040 nM
17. EVTPEYIKDL  1230 nM
18. DTIAHINTL  1240 nM
19. ELLEMKYAL  1520 nM
20. YVEHDPRLV  1930 nM
21. DLFMSHVKSV  1940 nM
22. DTLVKSGLT  1950 nM
23. MLKLFTHDIM  2000 nM
24. AAAKTPVIV  2020 nM
25. CLKNEGVSGL  2080 nM
26. EMKYALINL  2470 nM
27. FLRPVLKAM  2470 nM
28. ELKDLLNVT  2780 nM
29. DVDIPTFNSL  3050 nM
30. IADIRDKYM  3110 nM
31. HMYRGGNGNT  3260 nM
32. DLNAVTTNNL  3370 nM
33. DTGKKELAL  3410 nM
34. DLNRMPTDML  3940 nM
35. AAKTPVIVV  4280 nM
36. GLILFVLAL  4340 nM
37. TLFYCDERDA  4920 nM
38. IQKDINITHT  4990 nM
